Like-named read-outs stand apart in the source and are kept apart here. Starred links: 1 amine or outer side, 2 acyl side, 3 side chain; linkers in the order of their positions; H or OH if unused. Non-standard residues stand in square brackets, D forms with d. No end group written: not given here. *: point of attachment. Propanoyl(3-indol-3-yl) = O=C(CCc1c[nH]c2ccccc12)*; Phe(F5) = N[C@@H](Cc1c(F)c(F)c(F)c(F)c1F)C(=O)O; Tyr(Me) = COc1ccc(C[C@H](N[*:1])C(=O)[*:2])cc1; Phe(4-NH2) = Nc1ccc(C[C@H](N)C(=O)O)cc1; Arg(Me) = CNC(=N)NCCC[C@H](N)C(=O)O; Fmoc = O=C(OCC1c2ccccc2-c2ccccc21)*; Lys(Me2) = CN(C)CCCC[C@H](N)C(=O)O; 4Pal = N[C@@H](Cc1ccncc1)C(=O)O; d4Pal = N[C@H](Cc1ccncc1)C(=O)O; Cha = N[C@@H](CC1CCCCC1)C(=O)O; azaGly = NNC(=O)O
Tests used:
[1] = molecular target: T1, human OT7T175 (metastin receptor) (human, UniProt Q969F8 1-398); assay: cell-based or functional assay
[2] = molecular target: T1, human OT7T175 (metastin receptor); assay: competition with Cy-5 metastin (40-54) on hOT7T175-CHO cells, FMAT
[3] = molecular target: T1, human OT7T175 (metastin receptor); assay: cell-based or functional assay; remark: listed apart in the source
[4] = molecular target: T1, human OT7T175 (metastin receptor); assay: cell-based or functional assay; remark: listed apart in the source
[5] = molecular target: T1, human OT7T175 (metastin receptor); assay: cell-based or functional assay; remark: listed apart in the source

T1 sequence (Q969F8 whole entry L364H): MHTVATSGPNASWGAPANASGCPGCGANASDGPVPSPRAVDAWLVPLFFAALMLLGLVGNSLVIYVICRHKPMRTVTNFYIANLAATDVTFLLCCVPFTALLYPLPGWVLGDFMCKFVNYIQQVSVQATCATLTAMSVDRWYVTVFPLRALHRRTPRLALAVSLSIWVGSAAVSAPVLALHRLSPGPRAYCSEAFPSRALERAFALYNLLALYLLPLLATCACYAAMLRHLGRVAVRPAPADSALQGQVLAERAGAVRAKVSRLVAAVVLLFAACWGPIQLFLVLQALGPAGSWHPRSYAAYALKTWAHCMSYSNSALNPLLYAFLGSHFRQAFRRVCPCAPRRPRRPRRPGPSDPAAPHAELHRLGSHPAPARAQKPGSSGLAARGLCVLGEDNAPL

| Binder | Ca ion level-increasing activity (FLIPR) [1] | IC50 [2] | Ca ion level-increasing activity (FLIPR) [3] | Ca ion level-increasing activity (FLIPR, 40 s) [4] | cell growth inhibition activity, IC50 [5] |
| --- | --- | --- | --- | --- | --- |
| Fmoc-WNSFGLRF-NH2 (SMILES CC(C)C[C@H](NC(=O)CNC(=O)[C@H](Cc1ccccc1)NC(=O)[C@H](CO)NC(=O)[C@H](CC(N)=O)NC(=O)[C@H](Cc1c[nH]c2ccccc12)NC(=O)OCC1c2ccccc2-c2ccccc21)C(=O)N[C@@H](CCCNC(=N)N)C(=O)N[C@@H](Cc1ccccc1)C(N)=O, also called Compound No. 54) [des(1-2)-Fmoc-MS10] | 5 x Metastin (1-54) | 450 nM |  |  |  |
| [dY][d4Pal]NSF[azaGly]L[Arg(Me)]F-NH2 (N-terminus assumed; SMILES CNC(=N)NCCC[C@H](NC(=O)[C@H](CC(C)C)NC(=O)NNC(=O)[C@H](Cc1ccccc1)NC(=O)[C@H](CO)NC(=O)[C@H](CC(N)=O)NC(=O)[C@@H](Cc1ccncc1)NC(=O)[C@H](N)Cc1ccc(O)cc1)C(=O)N[C@@H](Cc1ccccc1)C(N)=O, also called Compound No. 305; KiSS1-305) [des(1)-[D-Tyr2,D-Pya(4)3,AzaGly7,Arg(Me)9]MS10] |  | 1.3 nM | 5 x Metastin (1-54) | 2 EC50/MS10 EC50 | 8.94 nM |
| YNWNSFGLR[Phe(4-NH2)]-NH2 (also called Compound No. 131) [[Phe(4NH2)10]MS10] | 3 x Metastin (1-54) | 120 nM |  |  |  |
| YNWNSFGLRX (Cha10; C-terminal amide, also called Compound No. 112) [[Cha10]MS10] | 2 x Metastin (1-54) | 370 nM |  |  |  |
| YN[dW]NSFGL[Arg(Me)]F-NH2 (also called Compound No. 143) [[D-Trp3,Arg(Me)9]MS10] | 3 x Metastin (1-54) | 7.7 nM |  |  |  |
| YNWNSFGLRX (Nal(1)10; C-terminal amide, also called Compound No. 133) [[Nal(1)10]MS10] | 3 x Metastin (1-54) | 330 nM |  |  |  |
| Fmoc-NSFGL[Arg(Me)]F-NH2 [des(1-3)-Fmoc-[Arg(Me)9]MS10] | 1 x Metastin (1-54) |  |  |  |  |
| YNWNSFGL[Lys(Me2)]F-NH2 [[Lys(Me2)9]MS10] | 0.5 x Metastin (1-54) |  |  |  |  |
| YNWNSFALRF-NH2 (also called Compound No. 50) [[Ala7]MS10] | 30 x Metastin (1-54) | 190 nM |  |  |  |
| YNWNSFGLRW-NH2 (also called Compound No. 134) [[Trp10]MS10] | 30 x Metastin (1-54) | 110 nM |  | 0.5 EC50/MS10 EC50 |  |
| [dY]NANSFGL[Arg(Me)]F-NH2 (N-terminus assumed; SMILES CNC(=N)NCCC[C@H](NC(=O)[C@H](CC(C)C)NC(=O)CNC(=O)[C@H](Cc1ccccc1)NC(=O)[C@H](CO)NC(=O)[C@H](CC(N)=O)NC(=O)[C@H](C)NC(=O)[C@H](CC(N)=O)NC(=O)[C@H](N)Cc1ccc(O)cc1)C(=O)N[C@@H](Cc1ccccc1)C(N)=O, also called Compound No. 169) [[D-Tyr1,Ala3,Arg(Me)9]MS10] | 2 x Metastin (1-54) | 160 nM |  |  |  |
| YNWNSFGLR[Tyr(Me)]-NH2 (also called Compound No. 18) [[Tyr(Me)10]MS10] | 1 x Metastin (1-54) | 7.7 nM |  |  |  |
| YNWNSFSLRF-NH2 (also called Compound No. 101) [[Ser7]MS10] | 10 x Metastin (1-54) | 100 nM |  |  |  |
| [dY]NSNSFGL[Arg(Me)]F-NH2 (N-terminus assumed; SMILES CNC(=N)NCCC[C@H](NC(=O)[C@H](CC(C)C)NC(=O)CNC(=O)[C@H](Cc1ccccc1)NC(=O)[C@H](CO)NC(=O)[C@H](CC(N)=O)NC(=O)[C@H](CO)NC(=O)[C@H](CC(N)=O)NC(=O)[C@H](N)Cc1ccc(O)cc1)C(=O)N[C@@H](Cc1ccccc1)C(N)=O, also called Compound No. 170) [[D-Tyr1,Ser3,Arg(Me)9]MS10] | 1 x Metastin (1-54) | 260 nM |  |  |  |
| YNWNSFGLRY-NH2 (also called Compound No. 109) [[Tyr10]MS10] | 20 x Metastin (1-54) | 23 nM |  | 2.6 EC50/MS10 EC50 |  |
| YNWNLFGLRF-NH2 (also called Compound No. 24) [[Leu5]MS10] | 1 x Metastin (1-54) | 0.83 nM |  |  |  |
| DNWNSFGLRF-NH2 (also called Compound No. 75) [[Asp1]MS10] | 1 x Metastin (1-54) | 880 nM |  |  |  |
| YNWNSXGLRF (Cha6; C-terminal amide, also called Compound No. 156) [[Cha6]MS10] | 2 x Metastin (1-54) | 49 nM |  | 0.9 EC50/MS10 EC50 |  |
| KNWNSFGLRF-NH2 [[Lys1]MS10] | 1 x Metastin (1-54) |  |  |  |  |

| Binder | Ca ion level-increasing activity (FLIPR) [1] | IC50 [2] | Ca ion level-increasing activity (FLIPR) [3] | Ca ion level-increasing activity (FLIPR, 40 s) [4] | cell growth inhibition activity, IC50 [5] |
| --- | --- | --- | --- | --- | --- |
| [dY]NWNSFGL[Arg(Me)]F-NH2 [[D-Tyr1,Arg(Me)9]MS10] |  |  |  | 1.6 EC50/MS10 EC50 | 87 nM |
| YNWNSFGLRX (Pya(4)10; C-terminal amide, also called Compound No. 17) [[Pya(4)10]MS10] | 5 x Metastin (1-54) | 0.0066 nM |  |  |  |
| YNWNSXGLRF (D-Tyr1; Cha6; Arg(Me)9; C-terminal amide) [[D-Tyr1,Cha6,Arg(Me)9]MS10 (Compound No. 172)] | 1 x Metastin (1-54) |  |  |  |  |
| [dY]NWNSFAL[Arg(Me)]F-NH2 (N-terminus assumed; SMILES CNC(=N)NCCC[C@H](NC(=O)[C@H](CC(C)C)NC(=O)[C@H](C)NC(=O)[C@H](Cc1ccccc1)NC(=O)[C@H](CO)NC(=O)[C@H](CC(N)=O)NC(=O)[C@H](Cc1c[nH]c2ccccc12)NC(=O)[C@H](CC(N)=O)NC(=O)[C@H](N)Cc1ccc(O)cc1)C(=O)N[C@@H](Cc1ccccc1)C(N)=O) [[D-Tyr1,Ala7,Arg(Me)9]MS10 (Compound No. 173)] | 1 x Metastin (1-54) |  |  |  |  |
| YNWNSXGLRF (Nal(2)6; C-terminal amide, also called Compound No. 152) [[Nal(2)6]MS10] | 5 x Metastin (1-54) | 180 nM |  | 1.4 EC50/MS10 EC50 |  |
| [dY][dN][4Pal]NSF[azaGly]L[Arg(Me)]F-NH2 (also called Compound No. 303) [[D-Tyr1,D-Asn2,Pya(4)3,AzaGly7,Arg(Me)9]MS10] |  | 0.5 nM | 5 x Metastin (1-54) | 6.9 EC50/MS10 EC50 | 41.2 nM |
| YNWNSFGLRX (Nal(2)10; C-terminal amide, also called Compound No. 110) [[Nal(2)10]MS10] | 20 x Metastin (1-54) | 24 nM |  |  |  |
| [dY]N[Cha]NSFGL[Arg(Me)]F-NH2 (N-terminus assumed; SMILES CNC(=N)NCCC[C@H](NC(=O)[C@H](CC(C)C)NC(=O)CNC(=O)[C@H](Cc1ccccc1)NC(=O)[C@H](CO)NC(=O)[C@H](CC(N)=O)NC(=O)[C@H](CC1CCCCC1)NC(=O)[C@H](CC(N)=O)NC(=O)[C@H](N)Cc1ccc(O)cc1)C(=O)N[C@@H](Cc1ccccc1)C(N)=O, also called Compound No. 171) [[D-Tyr1,Cha3,Arg(Me)9]MS10] | 10 x Metastin (1-54) | 110 nM |  |  |  |
| YNWNSXGLRF (Nal(1)6; C-terminal amide, also called Compound No. 151) [[Nal(1)6]MS10] | 1 x Metastin (1-54) | 300 nM |  |  |  |
| YNWNSFGXRF (Nle8; C-terminal amide, also called Compound No. 105) [[Nle8]MS10] | 1 x Metastin (1-54) | 880 nM |  |  |  |
| [dY]N[4Pal]NSF[azaGly]L[Arg(Me)]F-NH2 (also called Compound No. 286) [[D-Tyr1,Pya(4)3,AzaGly7,Arg(Me)9]MS10] |  | 17 nM | 2 x Metastin (1-54) |  | 18.3 nM |
| YNWNSFGLRX (Hph10; C-terminal amide) [[Hph10]MS10] | 1 x Metastin (1-54) |  |  |  |  |
| [dY]NWNSFGLRF-NH2 [[D-Tyr1]MS10] | 30 x Metastin (1-54) |  |  | 1.6 EC50/MS10 EC50 |  |
| YNWNSFGLR[Phe(F5)]-NH2 (also called Compound No. 111) [[Phe(F5)10]MS10] | 3 x Metastin (1-54) | 140 nM |  |  |  |
| YNWNSFGLXF (Har9; C-terminal amide, also called Compound No. 97) [[Har9]MS10] | 10 x Metastin (1-54) | 370 nM |  | 2.9 EC50/MS10 EC50 |  |
| LPNYNWNSFGLRF-NH2 (also called Compound No. 32) [Leu-Pro-Asn-MS10] | 10 x Metastin (1-54) | 25 nM |  |  |  |
| YN[dW]NSFGLRF-NH2 [[D-Trp3]MS10] | 30 x Metastin (1-54) |  |  | 1.6 EC50/MS10 EC50 |  |
| {Propanoyl(3-indol-3-yl)}-NSFGLRF-NH2 (SMILES CC(C)C[C@H](NC(=O)CNC(=O)[C@H](Cc1ccccc1)NC(=O)[C@H](CO)NC(=O)[C@H](CC(N)=O)NC(=O)CCc1c[nH]c2ccccc12)C(=O)N[C@@H](CCCNC(=N)N)C(=O)N[C@@H](Cc1ccccc1)C(N)=O, also called Compound No. 114) [des(1-3)-3-(3-Indolyl)propionyl-MS10] | 3 x Metastin (1-54) | 550 nM |  | 4.1 EC50/MS10 EC50 |  |

From patent US20090298765A1 (Takeda / Millennium, published 2009)
